Values of other authors as cited in publication PMC2865993.

Biological target: actin filament (sides) (Oryctolagus cuniculus) (UniProt P68135)

Kd: 3000 nM
Substance: formin (mDia1 FH2) FH2 (from UniProt O08808)
